Data as given in patent US20070020283A1.

Each binder was assayed against human interferon γ (human) (UniProt P01579) (assay: cell-based or functional assay).
human interferon γ (human), sequence (P01579 24-166 limits assumed): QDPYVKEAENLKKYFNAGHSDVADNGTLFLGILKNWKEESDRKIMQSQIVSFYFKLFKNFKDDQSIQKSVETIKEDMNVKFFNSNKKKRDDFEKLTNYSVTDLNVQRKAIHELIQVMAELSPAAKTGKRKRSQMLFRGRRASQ

| Binder | IC50 (M), GAS-luciferase bioassay in HEK293 cells [M] | IC50 (M), ISRE-luciferase bioassay in HEK293 cells [M] |
| --- | --- | --- |
| hIFNγRα(23-239).TG.hIFNγRβ.SG.hFc (Fc fusion, not shown: a dimerising Fc or GST) DLGPSSVPTPTNVTIESYNMNPIVYWEYQIMPQVPVFTVEVKNYGVKNSEWIDACINISHHYCNISDHVGDPSNSLWVRVKARVGQKESAYAKSEEFAVCRDGKIGPPKLDIRKEEKQIMIDIFHPSVFVNGDEQEVDYDPETTCYIRVYNVYVRMNGSEIQYKILTQKEDDCDEIQCQLAIPVSSLNSQYCVSAEGVLHVWGVTTEKSKEVCITIFTGSQLPAPQHPKIRLYNAEQVLSWEPVALSNSTRPVVYQVQFKYTDSKWFTADIMSIGVNCTQITATECDFTAASPSAGFPMDFNVTLRLRAELGALHSAWVTMPWFQHYRNVTVGPPENIEVTPGEGSLIIRFSSPFDIADTSTAFFCYYVHYWEKGGIQQVKGPFRSNSISLDNLKPSRVYCLQVQAQLLWNKSNIFRVGHLSNISCYETMADASTELQSG | 1.9e-10 | 5.3e-11 |
| hIFNγRα(24-239).SG.hFc (Fc fusion, not shown: a dimerising Fc or GST) LGPSSVPTPTNVTIESYNMNPIVYWEYQIMPQVPVFTVEVKNYGVKNSEWIDACINISHHYCNISDHVGDPSNSLWVRVKARVGQKESAYAKSEEFAVCRDGKIGPPKLDIRKEEKQIMIDIFHPSVFVNGDEQEVDYDPETTCYIRVYNVYVRMNGSEIQYKILTQKEDDCDEIQCQLAIPVSSLNSQYCVSAEGVLHVWGVTTEKSKEVCITIFSG | 2.1e-08 | 1.2e-08 |
| hIFNγRα(23-239).SG.hFc (Fc fusion, not shown: a dimerising Fc or GST) DLGPSSVPTPTNVTIESYNMNPIVYWEYQIMPQVPVFTVEVKNYGVKNSEWIDACINISHHYCNISDHVGDPSNSLWVRVKARVGQKESAYAKSEEFAVCRDGKIGPPKLDIRKEEKQIMIDIFHPSVFVNGDEQEVDYDPETTCYIRVYNVYVRMNGSEIQYKILTQKEDDCDEIQCQLAIPVSSLNSQYCVSAEGVLHVWGVTTEKSKEVCITIFSG | 4.6e-09 | 2.57e-09 |
| hIFNγRα(23-239).TG.hFc.ARA.hIFNγRβ (Fc fusion, not shown: a dimerising Fc or GST) chain (part 1 of 2): DLGPSSVPTPTNVTIESYNMNPIVYWEYQIMPQVPVFTVEVKNYGVKNSEWIDACINISHHYCNISDHVGDPSNSLWVRVKARVGQKESAYAKSEEFAVCRDGKIGPPKLDIRKEEKQIMIDIFHPSVFVNGDEQEVDYDPETTCYIRVYNVYVRMNGSEIQYKILTQKEDDCDEIQCQLAIPVSSLNSQYCVSAEGVLHVWGVTTEKSKEVCITIFTG chain (part 2 of 2): ARASQLPAPQHPKIRLYNAEQVLSWEPVALSNSTRPVVYQVQFKYTDSKWFTADIMSIGVNCTQITATECDFTAASPSAGFPMDFNVTLRLRAELGALHSAWVTMPWFQHYRNVTVGPPENIEVTPGEGSLIIRFSSPFDIADTSTAFFCYYVHYWEKGGIQQVKGPFRSNSISLDNLKPSRVYCLQVQAQLLWNKSNIFRVGHLSNISCYETMADASTELQ | 1e-09 | 7.9e-10 |

The remaining lines, values ahead:

| IC50 (M), GAS-luciferase bioassay in HEK293 cells [M] | IC50 (M), ISRE-luciferase bioassay in HEK293 cells [M] | Binder |
| --- | --- | --- |
| 3.2e-09 | 1.3e-09 | hIFNγRα(24-239).TG.hIFNγRβ.SG.hFc (Fc fusion, not shown: a dimerising Fc or GST) LGPSSVPTPTNVTIESYNMNPIVYWEYQIMPQVPVFTVEVKNYGVKNSEWIDACINISHHYCNISDHVGDPSNSLWVRVKARVGQKESAYAKSEEFAVCRDGKIGPPKLDIRKEEKQIMIDIFHPSVFVNGDEQEVDYDPETTCYIRVYNVYVRMNGSEIQYKILTQKEDDCDEIQCQLAIPVSSLNSQYCVSAEGVLHVWGVTTEKSKEVCITIFTGSQLPAPQHPKIRLYNAEQVLSWEPVALSNSTRPVVYQVQFKYTDSKWFTADIMSIGVNCTQITATECDFTAASPSAGFPMDFNVTLRLRAELGALHSAWVTMPWFQHYRNVTVGPPENIEVTPGEGSLIIRFSSPFDIADTSTAFFCYYVHYWEKGGIQQVKGPFRSNSISLDNLKPSRVYCLQVQAQLLWNKSNIFRVGHLSNISCYETMADASTELQSG |
| 1.1e-08 | 6e-09 | hIFNγRα(24-239).TG.hFc.ARA.hIFNγRβ (Fc fusion, not shown: a dimerising Fc or GST) chain (part 1 of 2): LGPSSVPTPTNVTIESYNMNPIVYWEYQIMPQVPVFTVEVKNYGVKNSEWIDACINISHHYCNISDHVGDPSNSLWVRVKARVGQKESAYAKSEEFAVCRDGKIGPPKLDIRKEEKQIMIDIFHPSVFVNGDEQEVDYDPETTCYIRVYNVYVRMNGSEIQYKILTQKEDDCDEIQCQLAIPVSSLNSQYCVSAEGVLHVWGVTTEKSKEVCITIFTG chain (part 2 of 2): ARASQLPAPQHPKIRLYNAEQVLSWEPVALSNSTRPVVYQVQFKYTDSKWFTADIMSIGVNCTQITATECDFTAASPSAGFPMDFNVTLRLRAELGALHSAWVTMPWFQHYRNVTVGPPENIEVTPGEGSLIIRFSSPFDIADTSTAFFCYYVHYWEKGGIQQVKGPFRSNSISLDNLKPSRVYCLQVQAQLLWNKSNIFRVGHLSNISCYETMADASTELQ |
| 1.3e-08 | 2.4e-07 | hIFNγRα(33-239).TG.hIFNγRβ.SG.hFc (Fc fusion, not shown: a dimerising Fc or GST) TNVTIESYNMNPIVYWEYQIMPQVPVFTVEVKNYGVKNSEWIDACINISHHYCNISDHVGDPSNSLWVRVKARVGQKESAYAKSEEFAVCRDGKIGPPKLDIRKEEKQIMIDIFHPSVFVNGDEQEVDYDPETTCYIRVYNVYVRMNGSEIQYKILTQKEDDCDEIQCQLAIPVSSLNSQYCVSAEGVLHVWGVTTEKSKEVCITIFTGSQLPAPQHPKIRLYNAEQVLSWEPVALSNSTRPVVYQVQFKYTDSKWFTADIMSIGVNCTQITATECDFTAASPSAGFPMDFNVTLRLRAELGALHSAWVTMPWFQHYRNVTVGPPENIEVTPGEGSLIIRFSSPFDIADTSTAFFCYYVHYWEKGGIQQVKGPFRSNSISLDNLKPSRVYCLQVQAQLLWNKSNIFRVGHLSNISCYETMADASTELQSG |
